Measurements taken from the DeepSol protein solubility set.

assay: soluble on expression in E. coli; label from the status in PepcDB or PDB records

Q: For “MAHHHHHHMEKYEFPEDYVNPRNIPRIAYIPDVAAYVSNGGGADTVISNLLMESSKYEHMEKRLVSSLANLDYKIPTIKKTLNSLEFLQKQLEEAEQQEEDGKRAGIRSYYCLTDSVFGEAIVRPQKTVHLWMGAKVMVEYTFEEASALLKKNLSNAEVNMRNTKEDLAWLQEQITNLQINISRVYNYDLKNKRAKD”, which “soluble on expression in E. coli” value is on record?
A: not soluble

Q: Which “soluble on expression in E. coli” value does the source give for “GSHMATEPKAGRPSDYMPEVADDICSLLSSGESLLKVCKRPGMPDKSTVFRWLAKHEDFRDKYAKATEARADSIFEEIFEIADNAIPDAAEVAKARLRVDTRKWALARMNPRKYGDKVTNELVGKDGGAIQIETSPMSTLFGK” here?
A: soluble

Q: For “MKNTQLLTSLRYVLLGALTVTTSVVQAESIAITNATVYTVAKKGVLFQATVMVDEGKITAVYGKDEVPESLSADTIIDAKERILTPGFIATHNLLGLVEVGAVSDTRDSSDKDADITFDASLAFNPKSTLIAYARKGGITSSLVMPYGGEDVITGQSFVVNLSGDFDSVIMPQNAVIVSLGASGKGSRATKLQTLSNELEDAQKALAKAEKVKASSKKEKEEKEAETPSRSELVLNELLSGDKPLIAYADRATDILALLKLKQKFNLNLILAGASDAVLVSDEIAKANVVVMMSAIDNLPSSFDSLHNSLTNVAKLTDAGVKVIISNSGESYNINQLRFDAGVAVANGVAATTALAAVTANVADSFNLNSGRIAVGKNADLVLWSSDPFEISTKVDAMWINGQAMSLKSRQDALRQRYIVETDMPRAYTK”, which “soluble on expression in E. coli” value is on record?
A: not soluble

Q: Which “soluble on expression in E. coli” value does the source give for “MMVLRMKVEWYLDFVDLNYEPGRDELIVEYYFEPNGVSPEEAAGRIASESSIGTWTTLWKLPEMAKRSMAKVFYLEKHGEGYIAKIAYPLTLFEEGSLVQLFSAVAGNVFGMKALKNLRLLDFHPPYEYLRHFKGPQFGVQGIREFMGVKDRPLTATVPKPKMGWSVEEYAEIAYELWSGGIDLLKDDENFTSFPFNRFEERVRKLYRVRDRVEAETGETKEYLINITGPVNIMEKRAEMVANEGGQYVMIDIVVAGWSALQYMREVTEDLGLAIHAHRAMHAAFTRNPRHGITMLALAKAARMIGVDQIHTGTAVGKMAGNYEEIKRINDFLLSKWEHIRPVFPVASGGLHPGLMPELIRLFGKDLVIQAGGGVMGHPDGPRAGAKALRDAIDAAIEGVDLDEKAKSSPELKKSLREVGLSKAKVGVQH” here?
A: soluble

Q: Which “soluble on expression in E. coli” value does the source give for “MLRSSLLPFSYLYEKIINFRNTLYDKGFLKIKKLPVPVISVGNLSVGGSGKTSFVMYLADLLKDKRVCILSRGYKRKSKGTLIVSEYGNLKVSWEEAGDEPYLMAKLLPHVSVVASEDRYKGGLLALEKLSPEVFILDDGFQHRKLHRDLNILLLKKKDLKDRLLPAGNLREPLKEIRRADALVLTYQEVEPFEFFTGKPTFKMFREFCCLLNSDFEEVPFDILKEREVIAFSGLGDNGQFRKVLKNLGIKVKEFMSFPDHYDYSDFTPEEGEIYLTTPKDLIKLQGYENVFALNFKVKLEREEKLKKLIYRIFYLEHHHHHH” here?
A: soluble

Q: For “MEPAAGSSMEPSADWLATAAARGRVEEVRALLEAGALPNAPNSYGRRPIQVMMMGSARVAELLLLHGAEPNCADPATLTRPVHDAAREGFLDTLVVLHRAGARLDVRDAWGRLPVDLAEELGHRDVARYLRAAAGGTRGSNHARIDAAEGPSDIPD”, which “soluble on expression in E. coli” value is on record?
A: soluble

Q: Which “soluble on expression in E. coli” value does the source give for “MSEQLTDQVLVERVQKGDQKAFNLLVVRYQHKVASLVSRYVPSGDVPDVVQEAFIKAYRALDSFRGDSAFYTWLYRIAVNTAKNYLVAQGRRPPSSDVDAIEAENFESGGALKEISNPENLMLSEELRQIVFRTIESLPEDLRMAITLRELDGLSYEEIAAIMDCPVGTVRSRIFRAREAIDNKVQPLIRR” here?
A: not soluble

Q: With “MGSSHHHHHHSSGLVPRGSHMTEIYTSVLSYRLLEGKAYSDADTRSLDRMMRSIDEFFSANPGYINFHIYRSYRTDSDVIFWYSSRNPDLMILAKERVQASMRPIAVSSFSSISIYDESPYNAMNKKLEDSLRLPPLRYFVAYPMSKTPDWYLLDFDTRKEIMHEHIKMALNHPDEKGIRSYTTYSFGIGDQEFVVLYEIPDIAAWSRVTEKLREARARKWIIKETPILLGRLVDAGDIAGFLL” as the sequence, how does the “soluble on expression in E. coli” value read?
A: soluble

Q: For “MSKVALFAGGDLSYISRDFDYFVGIDRGSLFLLENGLPLNMAVGDFDSVSQKAFTDIKEKAELFITAHPEKNDTDTELALKEVFARFPEAEVTIFGAFGGRMDHLLSNIFLPSDPGIAPFMAQIALRDQQNMITYRPAGQHLIHQEEGMTYVAFMAEGEADLTITGAKFELTQDNFFKKKIYSSNAFIHQPITVSLPSGYLIIIQSKDWS”, which “soluble on expression in E. coli” value is on record?
A: soluble

Q: Which “soluble on expression in E. coli” value does the source give for “MNLEPPKAECRSATRVMGGPCTPRKGPPKCKQRQTRQCKSKPPKKGVQGCGDDIPGMEGCGTDITVICPWEACNHCELHELAQYGIC” here?
A: soluble

Q: Which “soluble on expression in E. coli” value does the source give for “QNSPQDYLAVHNDARAQVGVGPMSWDANLASRAQNYANSRAGDCNLIHSGAGENLAKGGGDFTGRAAVQLWVSERPSYNYATNQCVGGKKCRHYTQVVWRNSVRLGCGRARCNNGWWFISCNYDPVGNWIGQRPY” here?
A: soluble

Q: For “MVRTAPDPAMVQRSHQKPSLVMTTHSMLIPMVDTLLELPARTLTDGTSTPKHQQLREILEELCRTQLKPGDMLPGERALEEQYGVSRITVRRAIGDLVATGQLRRSRGKGTFVAQAPMITRLQLASFSDEMAARKIEASSKILASSWSSPSAVVHEFFGTEQGTPHTHLVRVRLGGGKPFCINDAWYNSAIAPDLLENDVYKSVYSILEQNYGASITGAEQITTAVAATPETARILGVDVGEPLLKVERHAHAGENPIEWCSSLYRTDRFALRTFITK”, which “soluble on expression in E. coli” value is on record?
A: not soluble

Q: With “MNIIKANVAAPDARVAITIARFNQFINDSLLDGAVDALTRIGQVKDDNITVVWVPGAYELPLATEALAKSGKYDAVVALGTVIRGGTAHFEYVAGGASNGLASVAQDSGVPVAFGVLTTESIEQAIERAGTKAGNKGAEAALTALEMINVLKAIKA” as the sequence, how does the “soluble on expression in E. coli” value read?
A: not soluble

Q: Which “soluble on expression in E. coli” value does the source give for “MMYSFEANANAVKISETVSVDTGQGAKIHKFVPKNSKTYSSDLIKTVDLTHIPTGAKARINAKITASVSRAGVLAGVGKLARLGAKFSTRAVPYVGTALLAHDVYETFKEDIQARGYQYDPETDKFAKVSG” here?
A: not soluble

Q: With “MAHHHHHHMTDMELVEALNATEVPIARAVFLMISAVQDADAGDNKTWSCCHPDRSPAASPGSTTGWRSLRESPSGPAVIEVCYNDGADSFLTVKWVPMDKTHLVMITQRSDRERSHQPLNTSFCIEDEPLASLVLGQQTGSGASAAAMWTAESLGSALHRLRCLLQSAIGNTGRGSEQNEKFSAAQDSDCGRELPSPRRRNLVILNSTAVDPPLLLPLPCLPKAVCYLREWSRVLPAPVTAKRISSPVVEVLVWVAA” as the sequence, how does the “soluble on expression in E. coli” value read?
A: soluble

Q: Which “soluble on expression in E. coli” value does the source give for “MTIYLVRHGESKSNYDNKHFRSYFCGQLDVPLTDTGTKSADDLCDYFKEKQIKHVYVSDLLRTQQTFEHIFPYDIASTTTPLLRERSLGVFEGEYKDEISANPKYEKYFNDPNFKDFRHSFSQKAPEGESYEDVYQRVEHFMNHVVNEDTQKDDIVIVAHQVVIRCLMVYFNKVSRAEAVDLKVENCKPYIIE” here?
A: not soluble

Q: With “AIFELMNEAYAPLYGFSALSQGQINQYIKMYLPIVDLRMVTLVTDAEDKLVAVGISMPSLSEALQKAKGRLLPMGWYHLLKVLFLHKYPPMLDLLLVAVKPEYQNKGVNALLFSDLIPVYQQLGFKYA” as the sequence, how does the “soluble on expression in E. coli” value read?
A: not soluble

Q: For “EQPKCNVRVVEMTYTTVGVVGEATRASGVVLVPDGPQCPGPYPVLGWGRDGQTFRRSEQAKSIISAKGDDPLVTRLASQGYVVVGTDYLGLGGSNYPYHPYLHANSEASALIDALRASRTVLQHLNTPLSNKLMLSGFSQGGHTAMATQREIEAHLSNE”, which “soluble on expression in E. coli” value is on record?
A: not soluble

Q: For “MGSDKIHHHHHHDGMGLSQVYLTSMLEGRPLSFMKTPYIGLVKTHSANSWVTDSAAAGTALASGFKTNNGMINILPDGTVVPTIFEVAKTYGVRTGIVVTCRVTHATPAAFYAHVKSRDEENEIARQLVENETVDVVMGGGWANFLPKDLGGKRDDNLNLIELAKEKGYIYVKTREELSKISADSDKILALFAPSHLDPASSRKEQPMLYEMVEKALEILSKDDEPFFLMVEGSQIDWEAHDNDIYGVWKEVVEFDKAVQVALDFALKRGDTLVIVTADHETGGLGLSSGDYRVDVDKIRNFKKTTDWIMANYSPKDREKFKKAIEEYFGLTLSDEDLNRISMSKNPKIELGRILGEKVSVGWTTTTHSGTPVPIFAFGPGAENFTGFLDNTEIPRIIMKLTGYSLQYPLLKEPVTK”, which “soluble on expression in E. coli” value is on record?
A: not soluble
